Data on two substances can be found in PMC6327041 (Nature Communications, 2019).

The target of the experiment is T1, KDM5A1-797 (Homo sapiens, UniProt P29375).
T1 construct: KDM5A1-797 was cloned into a pFASTBAC HTA vector; His (N, cleaved yes); made in house; host or cells: Sf21 insect cells (baculovirus)
T1 sequence (P29375 1-797): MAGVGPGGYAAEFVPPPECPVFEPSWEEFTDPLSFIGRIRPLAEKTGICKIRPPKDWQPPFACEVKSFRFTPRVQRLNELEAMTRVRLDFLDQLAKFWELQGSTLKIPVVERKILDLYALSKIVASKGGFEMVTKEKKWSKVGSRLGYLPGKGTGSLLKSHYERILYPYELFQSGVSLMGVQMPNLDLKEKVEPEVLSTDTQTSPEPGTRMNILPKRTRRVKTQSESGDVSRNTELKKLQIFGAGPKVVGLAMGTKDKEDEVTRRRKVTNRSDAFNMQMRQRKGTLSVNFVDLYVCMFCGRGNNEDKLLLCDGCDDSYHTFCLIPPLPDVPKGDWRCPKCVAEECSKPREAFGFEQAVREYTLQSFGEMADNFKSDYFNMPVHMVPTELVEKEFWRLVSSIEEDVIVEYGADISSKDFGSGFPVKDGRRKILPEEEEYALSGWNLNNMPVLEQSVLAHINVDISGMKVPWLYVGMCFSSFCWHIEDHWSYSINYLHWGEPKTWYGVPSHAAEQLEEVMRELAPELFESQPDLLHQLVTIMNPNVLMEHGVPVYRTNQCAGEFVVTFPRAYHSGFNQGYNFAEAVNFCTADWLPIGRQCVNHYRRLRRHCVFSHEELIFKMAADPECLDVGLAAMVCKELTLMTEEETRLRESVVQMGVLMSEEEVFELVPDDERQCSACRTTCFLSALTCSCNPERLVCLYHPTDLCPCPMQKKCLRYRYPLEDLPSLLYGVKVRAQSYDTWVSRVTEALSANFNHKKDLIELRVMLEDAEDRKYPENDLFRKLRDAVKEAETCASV
Briefly: KDM5A demethylation, FDH-coupled formaldehyde release assay. It is filed as biochemical. To be noted: for kcat / Km: n ≥ 3, s.e.m. How it is done: WT KDM5A1-797 was expressed in Sf21 cells following Invitrogen Bac-to-Bac baculovirus expression system protocol. KDM5A1-797 was cloned into a pFASTBAC HTA vector. Purified bacmid was transfected in Sf21 cells. Approximately […] cells per well of a six-well dish were allowed to attach in 2 ml of SF-900 II SFM media containing 50 U ml^−1 penicillin and 50 μg ml^−1 streptomycin. While cells attached, 8 μl of Cellfectin II reagent (Invitrogen) in 100 μl of unsupplemented Grace’s medium was mixed with ~2–5 μg of bacmid in 100 μl of unsupplemented Grace’s medium and incubated for 15–30 min at 25 °C. Once cells were attached, media was removed and cells were washed with 2 ml of Grace’s unsupplemented media. The bacmid DNA:Cellfectin mixture was then diluted to 1 ml with Grace’s unsupplemented media and added to the well. Cells with bacmid:Cellfectin II mixture were incubated for 5 h at 27 °C. After 5 h of incubation, bacmid:Cellfectin mixture was removed and replaced with 2 ml of SF-900 II SFM 50 U ml^−1 penicillin and 50 μg ml^−1 streptomycin. Transfected cells were incubated 3–5 days or until signs of viral infection were observed. After transfection, the supernatant was spun down to remove the dead cells. The supernatant was then sterile filtered to obtain the P1 viral stock. To make P2, 20 ml of […] at ~2 × 10^6 cells per ml of sf21 was infected with 2 ml of P1 virus and incubated for 48–60 h. After 56 h, the cells were spun down and the supernatant was collected and sterile filtered to obtain P2 viral stock. Similarly, P3 viral stock from P2 viral stock was obtained. Generally, 1 l of Sf21 at 2 × 10^6 cells per ml was infected with ~40 ml of P3 virus for ~48–56 h. Cells were then collected and resuspended in the lysis buffer (25 mM HEPES pH 7.9, 350 mM NaCl, 5 mM KCl, 1.5 mM MgCl2, 10 mM imidazole, aprotinin 2 μg ml^−1, leupeptin 3 μg ml^−1, pepstatin 3 μg ml^−1, and 1 mM PMSF). Cells were homogenized by emulsiflex. After lysis, the supernatant was recovered by centrifuging at 35k r.p.m. for 45 min, and incubated with cobalt resin equilibrated in lysis buffer for 1 h at 4 °C. After incubation the resin was washed with wash buffer (25 mM HEPES, pH 7.9, 350 mM NaCl, 0.5 mM MgCl2, 10% glycerol, 10 mM imidazole, aprotinin 2 μg ml^−1, leupeptin 3 μg ml^−1, pepstatin 3 μg ml^−1, and 1 mM PMSF). His-KDM5A was eluted with elution buffer (25 mM HEPES pH 7.9, 100 mM NaCl, 0.5 mM MgCl2, 10% glycerol, 100 mM imidazole, aprotinin 2 μg ml^−1, leupeptin 3 μg ml^−1, pepstatin 3 μg ml^−1, and 1 mM PMSF). The His-tag was removed by overnight incubation with TEV protease at 4 °C in the dialysis buffer (25 mM HEPES, pH 7.9, 100 mM NaCl, and 2 mM DTT). After cleavage, protein was further purified by size-exclusion chromatography using a S200 column. Purified KDM5A was eluted, aliquoted and stored at −80 °C in 40 mM HEPES, pH 7.9, 50 mM KCl.
Michaelis–Menten parameters were determined using Graphpad Prism.

[1] abbreviates: 38 µM H3 10mer effector peptide vs none.
The mark [2] stands for this setting: KDM5A1-797 WT (Table 3), no effector.

Read-outs that look alike come from different tables or passages of the source.

Consider “Ac-H3K4me3 21mer: N-terminally acetylated 21mer H3K4me3 peptide, catalytic domain substrate”, for which the “change of kcat on addition of effector peptide” value under setting [1] is listed as “kcat remains similar”. Besides, under setting [1], the “reduction in Km on addition of effector peptide” value is “fivefold”. In addition, the catalytic efficiency (kcat/Km) reads like this: (+H3 10mer peptide (38 µM)) 2430 ± 200 M⁻¹ s⁻¹; under setting [2], 490 ± 55 M⁻¹ s⁻¹; (No effector peptide) 490 ± 55 M⁻¹ s⁻¹. Moreover, the kcat (+H3 10mer peptide (38 µM), 1 μM KDM5A, pH 7.5, room temperature) was 0.0408 ± 0.00067 s⁻¹; the kcat under setting [2] was determined as 0.047 ± 0.0013 s⁻¹; the kcat (No effector peptide, 1 μM KDM5A, pH 7.5, room temperature) was 0.047 ± 0.001 s⁻¹. For the same substance, the Km runs as follows: (+H3 10mer peptide (38 µM), 1 μM KDM5A, pH 7.5, room temperature, read-out: Km) 16.8 ± 1.1 µM; (KDM5A1-797 WT (Table 3), no effector, read-out: Km) 95.5 ± 7.6 µM; (No effector peptide, 1 μM KDM5A, pH 7.5, room temperature, read-out: Km) 95.5 ± 7.6 µM.

Take “H3: unmodified N-terminal H3 tail 10mer peptide (H3 Ala1-Ser10), PHD1 effector ligand”: the “rank of Km reduction among effector peptides” value (Ac-H3K4me3 21mer substrate, saturating effector peptide) is listed as “highest reduction in Km”. Besides, under “Km of Ac-H3K4me3 21mer with saturating modified H3 10mer effector (20× Kd; H3K4me2 10× Kd), 1 μM KDM5A, 50 mM HEPES, 50 mM KCl, pH 7.5, room temperature, read-out: Demethylase activity Km with effector peptide (Fig. 4a)”, the Km was found to be 16.8 ± 1.1 µM.
